Drawing on the supplement of paper PMC10567573, this text covers protein stability index for 72 sequences.

± gives the standard deviation.

The data set can be described thus: protein stability index of a GFP-peptide fusion (GPS, HEK-293T) (PSI 1-6); higher = more stable.
Where [1] appears, read: treatment: DMSO, c terminus: a fixed tail appended.
The mark [2] stands for this setting: treatment: MLN4924 1 uM, 8 h, c terminus: a fixed tail appended.
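Also: 24-mer peptide tiles fused after GFP, lentivirally expressed, FACS-sorted into six equal bins by GFP/DsRed ratio, decoded by Illumina sequencing, PSI is the read-weighted mean bin number.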

As for EERSPSFGEDYYGPSRSRHRRRSR [CLK3], the protein stability index by setting is: under setting [1], 5.32 ± 0.2; under setting [2], 5.46 ± 0.062.

For the sequence EEVPEGMEEAAVASVVLPARELQE [BCL2L13], the protein stability index under setting [1] is 5.59 ± 0.2 and the protein stability index under setting [2] came to 5.41 ± 0.26.

Take EEVVYDLSIRGFNKETAAACVEK [TSN]: the protein stability index was determined as 4.39 ± 0.14 (treatment: DMSO, c terminus: native) and 4.38 ± 0.27 (treatment: MLN4924 1 uM, 8 h, c terminus: native).

Regarding EFLELSPQKLKEVISLEKLNVGNE [GAN], the protein stability index by setting is: under setting [1], 3.44 ± 0.61; under setting [2], 3.09 ± 0.51.

In the case of EGFADGFVKALDDLHKMNHVTPPN [JUNB], the protein stability index runs as follows: under setting [1], 4.12 ± 0.22; under setting [2], 4.17 ± 0.3.

Take EGHCVIQVDVGDVNDNAPEVLLAS [PCDHGC5]: the protein stability index is, setting by setting: under setting [1], 3.86 ± 0.35; under setting [2], 3.96 ± 0.27.

For EGPMEEEEAQPMAAPEGKRSLANG [EID1], the protein stability index was 5.66 ± 0.25 under setting [1] and 5.58 ± 0.21 under setting [2].

As for EHGPSPGQDTFCQGKADGLYPNPR [CHIT1], the protein stability index reads like this: under setting [1], 4.38 ± 0.26; under setting [2], 4.36 ± 0.53.

For the sequence EHRRTARRTPPGQQRPHPRSHSRE [ELOA2], the protein stability index is 5.47 ± 0.14 under setting [1] and 5.32 ± 0.39 under setting [2].

As for EIAPQHRRGLLVSLNELMIVIGIL [SLC2A12], the protein stability index was 2.07 ± 0.11 under setting [1] and 2.33 ± 0.16 under setting [2].

On to EIQVDSEEPVFEAVINWVKHAKKE [KLHL12], for which the protein stability index runs as follows: under setting [1], 3.57 ± 0.4; under setting [2], 3.92 ± 0.95.

Consider EISVDSLDFSKKILHTAWHPSENI [PPP2R2B], for which the protein stability index came out at 2.28 ± 0.26 under setting [1] and 2.41 ± 0.21 under setting [2].

As for EKEKHVNQLQTKVAVLEQEIKDKD [SASS6], the protein stability index is, setting by setting: under setting [1], 5.38 ± 0.12; under setting [2], 5.53 ± 0.14.

Consider EKLKEKLKMKEREEAWVKIENLAK [PPP2R5C], for which the protein stability index was 2.54 ± 0.6 under setting [1] and 2.48 ± 0.39 under setting [2].

On to EKSQAYPRRRRPGCYAYRQNPEAI [MYORG], for which the protein stability index runs as follows: under setting [1], 3.34 ± 0.27; under setting [2], 3.32 ± 0.14.

As to ELDLRLRLAQPSSPEVLTPQLSPG [RTN2], the protein stability index is, setting by setting: under setting [1], 4.23 ± 0.24; under setting [2], 4.22 ± 0.15.

With ELQGFWMDIGQPKDFLTGMCLFLQ [GMPPB], the protein stability index under setting [1] worked out at 2.19 ± 0.25 and the protein stability index under setting [2] is 2.01 ± 0.35.

As for ELQRQKEAEKLERQLALPATEQAA [NOP53], the protein stability index by setting is: under setting [1], 5.14 ± 0.34; under setting [2], 5.42 ± 0.31.

In the case of ELVKSGVLGADGVCMTFMKQIAGG [INTS3], the protein stability index came to 2.27 ± 0.52 under setting [1] and 2.49 ± 0.068 under setting [2].

In turn, EMAATPAGFAQLTHLLMGLAGGKL [HDAC6] returned a protein stability index under setting [1] of 2.26 ± 0.39 and a protein stability index under setting [2] of 2.39 ± 0.22.

Take EMMSQALKATFSGFTKEQQRLGIP [ETS1]: the protein stability index under setting [1] amounted to 2.35 ± 0.28 and the protein stability index under setting [2] is 2.49 ± 0.2.

As to EMRQALQALLKENRLLQEENRTLQ [CBY2], the protein stability index reads like this: under setting [1], 2.53 ± 0.45; under setting [2], 2.65 ± 0.41.

Take EMSRGEQDLIEDLKLARKAYHDPM [NET1]: the protein stability index reads like this: under setting [1], 4.5 ± 0.27; under setting [2], 4.47 ± 0.33.

In the case of ENCERREAFWAEWKDLTLSTRPEE [TCAP], the protein stability index reads like this: under setting [1], 4.53 ± 0.097; under setting [2], 4.68 ± 0.2.

Sequence ENLLLASKLKGAAVKLADFGLAIE [CAMK2A] displayed a protein stability index under setting [1] of 2.35 ± 0.25 and a protein stability index under setting [2] of 2.7 ± 0.29.

EPTETLLSEKEINAREESLVEELS [BCL2L13] yielded a protein stability index under setting [1] of 5.46 ± 0.12 and a protein stability index under setting [2] of 5.55 ± 0.26.

In the case of EPVTLETPAFMFRLDASTSHQNLR [FSD1], the protein stability index is, setting by setting: under setting [1], 3.6 ± 0.35; under setting [2], 3.83 ± 0.2.

For the sequence EQNIIPSATNVTCYYQPAPYVSDG [TENT5C], the protein stability index reads like this: under setting [1], 3.43 ± 0.4; under setting [2], 3.63 ± 0.32.

On to EQQNQEYKILLDVKTRLEQEIATY [KRT17], for which the protein stability index amounted to 3.44 ± 0.34 under setting [1] and 3.59 ± 0.56 under setting [2].

On to EQVFNAVMAWVKYSIQERRPQLPQ [KLHL20], for which the protein stability index by setting is: under setting [1], 2.75 ± 0.67; under setting [2], 2.35 ± 0.68.

Regarding ERDTLSIRESRLFGAVVRWAEAEC [BTBD1], the protein stability index is 3.13 ± 0.21 under setting [1] and 3.12 ± 0.34 under setting [2].

For the sequence ERETEATRGRGGLLRDHIPRGKEE [MOG], the protein stability index is, setting by setting: under setting [1], 5.38 ± 0.38; under setting [2], 5.18 ± 0.41.

With ERLLCPSLLAGTADGSLRMDDPKG [M1AP], the protein stability index under setting [1] was found to be 4.74 ± 0.3 and the protein stability index under setting [2] is 4.71 ± 0.3.

Consider ERRHREEKERRKKQQWEIMHKHNE [RSPH3], for which the protein stability index amounted to 4.8 ± 0.23 under setting [1] and 4.65 ± 0.28 under setting [2].

For ESQLDPSNCLGIRDFAETHNCVDL [KLHL12], the protein stability index is 3.9 ± 0.45 under setting [1] and 4.26 ± 0.49 under setting [2].

As to ESQSTSLRGSYNSLHDGSDGLDGI [LURAP1L], the protein stability index is 4.91 ± 0.11 under setting [1] and 4.68 ± 0.17 under setting [2].

As to ESSLGSESEEEEEFYDADEETQMI [SLC22A15], the protein stability index turned out to be 5.05 ± 0.24 under setting [1] and 4.88 ± 0.3 under setting [2].

Take ESTIVELGSIFQQLAHMVKEQEET [STX5]: the protein stability index stood at 2.4 ± 0.7 under setting [1] and 3.25 ± 0.094 under setting [2].

As for ESVVSSAVPAAATRTTSFKGTSPS [KCTD10], the protein stability index reads like this: under setting [1], 5.09 ± 0.056; under setting [2], 5.25 ± 0.21.

As for ESYFTTRTYGEPESAGPSRAVRQS [EMD], the protein stability index came to 4.62 ± 0.26 under setting [1] and 4.57 ± 0.18 under setting [2].

Turning to ETAEEVSARIVQVVTAEAVAVLKG [MAP2], the protein stability index reads like this: under setting [1], 3.36 ± 0.27; under setting [2], 3.45 ± 0.34.

In the case of ETILHFFVQILLALHHVHTHLILH [NEK8], the protein stability index worked out at 3.19 ± 0.44 under setting [1] and 3.31 ± 0.29 under setting [2].

Take ETVTVTVGPAEPTLVNFHLKRSIP [CPN1]: the protein stability index under setting [1] was 3.02 ± 0.3 and the protein stability index under setting [2] came to 3.16 ± 0.2.

EVGPQEINKEELEGNSMRCGRKLA [GMCL1] had a protein stability index under setting [1] of 4.75 ± 0.48 and a protein stability index under setting [2] of 4.76 ± 0.3.

For EVSLDSLDLRVKGILSSQAEGLAN [EHMT1], the protein stability index runs as follows: under setting [1], 4.18 ± 0.19; under setting [2], 4.05 ± 0.42.

As for EVVPIHGRGNFPTLEITLKDIVQT [TENT5C], the protein stability index by setting is: under setting [1], 3.5 ± 0.31; under setting [2], 3.39 ± 0.27.

On to EWIKLDYHRRHNPKTNEDFEFLYN [IQUB], for which the protein stability index worked out at 2.12 ± 0.19 under setting [1] and 2.24 ± 0.18 under setting [2].

Take EWLLDAPELPEGHLEDWLEKRAKR [ZMAT5]: the protein stability index runs as follows: under setting [1], 4.95 ± 0.52; under setting [2], 4.79 ± 0.15.

On to EWPEYFMAVAFLSAQRSKDPNSQV [DCTD], for which the protein stability index amounted to 2.35 ± 0.26 under setting [1] and 2.06 ± 0.48 under setting [2].

For FARHIKKSEGQKIPKVELQISIYG [GULP1], the protein stability index came to 2.06 ± 0.41 under setting [1] and 1.9 ± 0.26 under setting [2].

On to FDETSSATTISTSEDGSYGTDVTR [KMT2E], for which the protein stability index reads like this: under setting [1], 5.34 ± 0.24; under setting [2], 5.49 ± 0.17.

On to FDPLPPSDTIYSYVRPERLSPISH [TCF25], for which the protein stability index stood at 3.07 ± 0.17 under setting [1] and 3.14 ± 0.42 under setting [2].

Consider FDVAFIGSIMTVWLSTAPTEPLTH [CARM1], for which the protein stability index is, setting by setting: under setting [1], 3.24 ± 0.64; under setting [2], 2.88 ± 0.53.

Regarding FELDLGKKVLNLLKGAFPARLKKV [PTPN9], the protein stability index runs as follows: under setting [1], 2.84 ± 1.1; under setting [2], 2.34 ± 0.59.

For FGGNPRFLSLHRAHLGEEAHKCLE [ZNF263], the protein stability index runs as follows: under setting [1], 2.47 ± 0.5; under setting [2], 3.14 ± 0.61.

Sequence FGQQDWKFLASHFPNRTDQQCQYR [MYBL2] had a protein stability index under setting [1] of 2.62 ± 0.36 and a protein stability index under setting [2] of 3.08 ± 0.27.

In the case of FHALVREIRRKEKEAVLAMEKKSK [RIT1], the protein stability index under setting [1] stood at 2.52 ± 0.6 and the protein stability index under setting [2] was determined as 3.07 ± 0.57.

In the case of FHYIPGTDILDLENQRENLEQPFL [PLEKHN1], the protein stability index stood at 2.92 ± 0.58 under setting [1] and 3.09 ± 0.16 under setting [2].

With FIAVTSYQNHKITQLKIENNPFAK [TBX5], the protein stability index is, setting by setting: under setting [1], 2.12 ± 0.28; under setting [2], 2.27 ± 0.53.

FKEVKEKFKGWVSYSTSEQAELSY [DLC1]: the protein stability index worked out at 3.13 ± 0.27 under setting [1] and 2.87 ± 0.31 under setting [2].

In the case of FKKQIWLLFEYPESSSPARGIAIV [KCNA4], the protein stability index under setting [1] was 2.74 ± 0.17 and the protein stability index under setting [2] turned out to be 2.42 ± 0.3.

Turning to FLDWLRTNPDLIIVCAQSSQSLWN [SMG5], the protein stability index turned out to be 2.5 ± 0.41 under setting [1] and 2.36 ± 0.41 under setting [2].

As to FLFQKPGDKYEHHSYMGMRGFCAF [POMT2], the protein stability index by setting is: under setting [1], 2.55 ± 0.75; under setting [2], 1.99 ± 0.22.

For the sequence FLHSLVQFLFIYQLPFCGPNVIDN [OR4A15], the protein stability index was 2.89 ± 0.32 under setting [1] and 3.48 ± 0.26 under setting [2].

Consider FLLDVIPVDGARYRWQGRRWEPSG [TBX6], for which the protein stability index stood at 1.81 ± 0.33 under setting [1] and 2.4 ± 0.3 under setting [2].

Consider FLTAPLLEFLLALYFLFADAMQLN [CMTM3], for which the protein stability index amounted to 2.94 ± 0.29 under setting [1] and 3.17 ± 0.3 under setting [2].

Take FLTFDKQVLRFYAIWDDTDSMYGE [EFHC1]: the protein stability index under setting [1] was determined as 2.49 ± 0.41 and the protein stability index under setting [2] came out at 2.46 ± 0.55.

As for FLTSRTRALLRRFPRMLLVDRLPG [ZSWIM9], the protein stability index by setting is: under setting [1], 2.57 ± 0.56; under setting [2], 2.41 ± 0.39.

As for FMKYVDSNLCCFIPGKVIDEIYRV [FBXO28], the protein stability index was determined as 2.99 ± 0.91 under setting [1] and 2.65 ± 0.4 under setting [2].

For the sequence FNYELVKSWLNGFRPKDQTSVGMS [SLC25A39], the protein stability index by setting is: under setting [1], 1.95 ± 0.32; under setting [2], 1.97 ± 0.3.

As to FPRKSELTEHQRIHTGIKPHQCSE [ZNF649], the protein stability index was found to be 3.92 ± 0.23 under setting [1] and 4.24 ± 0.18 under setting [2].

With FQARLSGNNLHNASIPEHLAYGSV [POMT2], the protein stability index is, setting by setting: under setting [1], 2.63 ± 0.21; under setting [2], 2.95 ± 0.29.
